Results as given in PMC5636791, “Non-canonical reader modules of BAZ1A promote recovery from DNA damage”.

Tests used:
BAZ1A-PHD [1] = target: T1, BAZ1A-PHD (human, UniProt Q9NRL2 1137-1202); assay: BLI; settings: n=6; value from figure text layer, assigned to the nucleosome panel; BLI: 50 mM Tris pH 7.5, 150 mM NaCl, 1 mM TCEP, 0.5% BSA, 0.01% Tween-20, 23 C; FP: 20 mM Tris pH 7.5, 150 mM NaCl, 1% glycerol, 0.5 mg/mL BSA, 0.05% Triton …
T1 sequence: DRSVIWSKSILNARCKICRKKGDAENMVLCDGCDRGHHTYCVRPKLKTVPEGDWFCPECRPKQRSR

dAcf1-PHD(1) = target: T2, dAcf1-PHD(1) (Drosophila, UniProt Q9V9T4 1051-1115); assay: BLI; BLI: 50 mM Tris pH 7.5, 150 mM NaCl, 1 mM TCEP, 0.5% BSA, 0.01% Tween-20, 23 C; FP: 20 mM Tris pH 7.5, 150 mM NaCl, 1% glycerol, 0.5 mg/mL BSA, 0.05% Triton X-100, RT, 50 nM probe; HDX: PBS pH 7.2, 5 C; settings: protein: recombinant; tags: His6-FLAG N-terminal, removed for BLI; label: 5' biotin; blunt
T2 sequence: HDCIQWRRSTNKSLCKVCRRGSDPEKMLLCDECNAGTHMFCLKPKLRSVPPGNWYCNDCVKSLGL

[2] = target: T3, BAZ1A-PHD K1181A/K1183Y (KAKY) (human, UniProt Q9NRL2 1137-1202, K1181A;K1183Y); assay: as above; settings: protein: recombinant; tags: His6-FLAG N-terminal, removed for BLI; label: 5' biotin; blunt
T3 sequence: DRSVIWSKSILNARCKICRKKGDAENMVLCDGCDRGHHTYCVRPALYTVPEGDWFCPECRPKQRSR

BAZ1B-PHD A1227K/Y1229K = target: T4, BAZ1B-PHD A1227K/Y1229K (UniProt Q9UIG0 1172-1237, A1217K;Y1219K); assay: as above; settings: protein: recombinant; tags: His6-FLAG N-terminal, removed for BLI; label: 5' biotin; blunt
T4 sequence: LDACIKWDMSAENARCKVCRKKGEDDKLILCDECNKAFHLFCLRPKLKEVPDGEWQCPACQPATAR

BAZ1B-PHD = target: T5, BAZ1B-PHD (UniProt Q9UIG0 1172-1237); assay: as above; settings: protein: recombinant; tags: His6-FLAG N-terminal, removed for BLI; label: 5' biotin; blunt
T5 sequence: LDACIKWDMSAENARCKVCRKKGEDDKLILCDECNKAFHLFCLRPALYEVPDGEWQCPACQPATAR

BAZ1A-PHD [3] = target: T1, BAZ1A-PHD; assay: BLI; n=10; BLI: 50 mM Tris pH 7.5, 150 mM NaCl, 1 mM TCEP, 0.5% BSA, 0.01% Tween-20, 23 C; FP: 20 mM Tris pH 7.5, 150 mM NaCl, 1% glycerol, 0.5 mg/mL BSA, 0.05% Triton X-100, RT, 50 nM probe; HDX: PBS pH 7.2, 5 C; settings: protein: recombinant; tags: His6-FLAG N-terminal, removed (TEV/thrombin) for BLI; HDX construct tag-free with extra non-native residues; label: 5' biotin; blunt
BAZ1A-PHD [4] = target: T1, BAZ1A-PHD; assay: competition; fluorescence polarization, 5.3 uM protein, 50 nM labeled probe; IC50 not in text; BLI: 50 mM Tris pH 7.5, 150 mM NaCl, 1 mM TCEP, 0.5% BSA, 0.01% Tween-20, 23 C; FP: 20 mM Tris pH 7.5, 150 mM NaCl, 1% glycerol, 0.5 mg/mL BSA, 0.05% Triton X-100, RT, 50 nM probe; HDX: PBS pH 7.2, 5 C; settings: protein: recombinant; tags: His6-FLAG N-terminal, removed (TEV/thrombin) for BLI; HDX construct tag-free with extra non-native residues; blunt
BAZ1A-PHD [5] = target: T1, BAZ1A-PHD; assay: BLI; identical results to scrambled sequence; BLI: 50 mM Tris pH 7.5, 150 mM NaCl, 1 mM TCEP, 0.5% BSA, 0.01% Tween-20, 23 C; FP: 20 mM Tris pH 7.5, 150 mM NaCl, 1% glycerol, 0.5 mg/mL BSA, 0.05% Triton X-100, RT, 50 nM probe; HDX: PBS pH 7.2, 5 C; settings: protein: recombinant; tags: His6-FLAG N-terminal, removed (TEV/thrombin) for BLI; HDX construct tag-free with extra non-native residues; label: 5' biotin; blunt
BAZ1A-PHD [6] = target: T1, BAZ1A-PHD; assay: HDX-MS; 30 uM protein, 100 uM DNA; C-terminal region protected, incl. K1181 and K1183; BLI: 50 mM Tris pH 7.5, 150 mM NaCl, 1 mM TCEP, 0.5% BSA, 0.01% Tween-20, 23 C; FP: 20 mM Tris pH 7.5, 150 mM NaCl, 1% glycerol, 0.5 mg/mL BSA, 0.05% Triton X-100, RT, 50 nM probe; HDX: PBS pH 7.2, 5 C; settings: protein: recombinant; tags: His6-FLAG N-terminal, removed (TEV/thrombin) for BLI; HDX construct tag-free with extra non-native residues; blunt

Question: How did the Kd (BAZ1A-PHD [1]) turn out when “human biotinylated mononucleosome (EpiCypher)” was run?
Answer: 48 µM

B1: scrambled Widom-601 145 bp duplex (dsDNA)
DNA 1: CTTGCATCGATCCGATTGAACCATCGCTCGGTGACAGCTACGTGACTTAGTGTGCCCCATCGATCCAGTTCGATCACAGGCCACCTGAGTCGAGAGTATCGACACCCAGTGAACGATCGATCCGACTCGATCGCCTCACTGCTAG
DNA 2: CTAGCAGTGAGGCGATCGAGTCGGATCGATCGTTCACTGGGTGTCGATACTCTCGACTCAGGTGGCCTGTGATCGAACTGGATCGATGGGGCACACTAAGTCACGTAGCTGTCACCGAGCGATGGTTCAATCGGATCGATGCAAG
Question: What does the source list for B1?
Answer: binding result (dAcf1-PHD(1)): no binding; binding result [2]: no binding; binding result (BAZ1B-PHD A1227K/Y1229K): no binding; binding result (BAZ1B-PHD): no binding; Kd (BAZ1A-PHD [3]): 51 ± 9 µM

B2: Widom-601 145 bp duplex, unlabeled (dsDNA)
DNA 1: ATCAGAATCCCGGTGCCGAGGCCGCTCAATTGGTCGTAGACAGCTCTAGCACCGCTTAAACGCACGTACGCGCTGTCCCCCGCGTTTTAACCGCCAAGGGGATTACTCCCTAGTCTCCAGGCACGTGTCAGATATATACATCGAT
DNA 2: ATCGATGTATATATCTGACACGTGCCTGGAGACTAGGGAGTAATCCCCTTGGCGGTTAAAACGCGGGGGACAGCGCGTACGTGCGTTTAAGCGGTGCTAGAGCTGTCTACGACCAATTGAGCGGCCTCGGCACCGGGATTCTGAT
Question: Does B2 bind (BAZ1A-PHD [4])?
Answer: binds

B3: Widom-601 145 bp duplex, biotinylated (dsDNA)
DNA 1: ATCAGAATCCCGGTGCCGAGGCCGCTCAATTGGTCGTAGACAGCTCTAGCACCGCTTAAACGCACGTACGCGCTGTCCCCCGCGTTTTAACCGCCAAGGGGATTACTCCCTAGTCTCCAGGCACGTGTCAGATATATACATCGAT
DNA 2: ATCGATGTATATATCTGACACGTGCCTGGAGACTAGGGAGTAATCCCCTTGGCGGTTAAAACGCGGGGGACAGCGCGTACGTGCGTTTAAGCGGTGCTAGAGCTGTCTACGACCAATTGAGCGGCCTCGGCACCGGGATTCTGAT
Question: Does B3 bind (BAZ1A-PHD [5])?
Answer: binds

B4: 20 bp HDX duplex (dsDNA)
DNA 1: ACTGACTCTGGACTACTGAG
DNA 2: CTCAGTAGTCCAGAGTCAGT
Question: Does B4 bind (BAZ1A-PHD [6])?
Answer: binds
